The values that follow come from the supplement of paper PMC10567573.

B1: RIPK4 (parent)
chain: VIDLFDEQGLSALHLAAQGRHAQT
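Also: lentivirally expressed fusions sorted by FACS into six bins by GFP to DsRed ratio, PSI derived from sequencing read proportions per bin multiplied by bin number.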

Variants of B1 are the subject of the series. As to the kind of experiment: protein stability index of a GFP-peptide fusion (GPS, HEK-293T) (PSI 1-6); higher = more stable. Particulars: c terminus: a fixed tail appended.
Consider VIDLFDEQGLSALHLAGQGRHAQT [A17G], for which the protein stability index was 2.72. With VIDLFDEQGLQALHLAAQGRHAQT [S11Q], the protein stability index worked out at 2.95. Then VIDLFDEQGLMALHLAAQGRHAQT [S11M], with 2.18. For the variant VIDLFDEQGLNALHLAAQGRHAQT [S11N], the protein stability index came to 2.95. With VIDLFDEQGLWALHLAAQGRHAQT [S11W], the protein stability index was determined as 2.52. Regarding VIDLFDEQGLRALHLAAQGRHAQT [S11R], the protein stability index stood at 2.03. Then VIDLFDEQGLTALHLAAQGRHAQT [S11T], with 2.63; and VIDLFDEQGLVALHLAAQGRHAQT [S11V], with 2.12; and VIDLFDEQGLPALHLAAQGRHAQT [S11P], with 2.95. VIDLFDEQGLYALHLAAQGRHAQT [S11Y]: the protein stability index is 2.31. With VIDLFDEQGLLALHLAAQGRHAQT [S11L] the figure was 2.36; with VIDLFDEQGLKALHLAAQGRHAQT [S11K], 2.65. Then VIDLFDEQGLSALHLAAHGRHAQT [Q18H], with 2.18. For VIDLFDEQGLSALHLAAAGRHAQT [Q18A], the protein stability index came to 2.27. For the variant VIDLFDEQGLSALHLAACGRHAQT [Q18C], the protein stability index amounted to 2.3. Take VIDLFDEQGLSALHLAAPGRHAQT [Q18P]: the protein stability index worked out at 2.82.

Turning to VIDLFDEQGLSALHLAARGRHAQT [Q18R], the protein stability index was 3.06. Consider VIDLFDEQGLSALHLAANGRHAQT [Q18N], for which the protein stability index amounted to 2.88. As for VIDLFDEQGLSALHLAAYGRHAQT [Q18Y], the protein stability index was 2.22. Regarding VIDLFDEQGLSALHLAAVGRHAQT [Q18V], the protein stability index was found to be 2.3. In the case of VIDLFDEQGLSALHLAAMGRHAQT [Q18M], the protein stability index turned out to be 2.15. Consider VIDLFDEQGLSALHLAAIGRHAQT [Q18I], for which the protein stability index came out at 2.51.

With VIDLFDEQGLSALHLAASGRHAQT [Q18S], the protein stability index came to 2.64. As to VIDLFDEQGLSALHLAATGRHAQT [Q18T], the protein stability index is 2.36. Regarding VIDLFDEQGLSALHLAAWGRHAQT [Q18W], the protein stability index came to 2.88. On to VIDLFDEQGLSALHLAADGRHAQT [Q18D], for which the protein stability index was 3.42.

Take VIDLFDEQGLSALHLAAGGRHAQT [Q18G]: the protein stability index was determined as 2.9. Consider VIDLFDEQGLSALHLAAKGRHAQT [Q18K], for which the protein stability index was determined as 2.17.

As to VIDLFDEQGLSALHLAALGRHAQT [Q18L], the protein stability index was 1.85. As for VIDLFDEQGLSALHLAAEGRHAQT [Q18E], the protein stability index was 3.19. With VIDLFDEQGLSALHLAAFGRHAQT [Q18F] the figure was 2.01; with VIDLFDEQGLSALHLAAQFRHAQT [G19F], 1.91. For VIDLFDEQGLSALHLAAQCRHAQT [G19C], the protein stability index was determined as 2.25.

In the case of VIDLFDEQGLSALHLAAQPRHAQT [G19P], the protein stability index was 2.76. For the variant VIDLFDEQGLSALHLAAQTRHAQT [G19T], the protein stability index stood at 2.37. Take VIDLFDEQGLSALHLAAQLRHAQT [G19L]: the protein stability index worked out at 1.63. On to VIDLFDEQGLSALHLAAQERHAQT [G19E], for which the protein stability index came out at 3.37. Then VIDLFDEQGLSALHLAAQQRHAQT [G19Q], with 3.07. Take VIDLFDEQGLSALHLAAQDRHAQT [G19D]: the protein stability index amounted to 3.55. Take VIDLFDEQGLSALHLAAQHRHAQT [G19H]: the protein stability index was determined as 2.59. For VIDLFDEQGLSALHLAAQMRHAQT [G19M], the protein stability index worked out at 1.64.

VIDLFDEQGLSALHLAAQYRHAQT [G19Y]: the protein stability index amounted to 2.66. With VIDLFDEQGLSALHLAAQVRHAQT [G19V] the figure was 1.71; with VIDLFDEQGLSALHLAAQNRHAQT [G19N], 3.03.

For VIDLFDEQGLSALHLAAQKRHAQT [G19K], the protein stability index is 3.13.

With VIDLFDEQGLSALHLAAQARHAQT [G19A], the protein stability index was 2.57. Regarding VIDLFDEQGLSALHLAAQSRHAQT [G19S], the protein stability index was determined as 2.99.

Regarding VIDLFDEQGLSALHLAAQRRHAQT [G19R], the protein stability index was 2.44. In the case of VIDLFDEQGLSALHLAAQWRHAQT [G19W], the protein stability index was 1.99.

As for VIDLFDEQGLSALHLAAQIRHAQT [G19I], the protein stability index was 1.42. For the variant VIDLFDEQGLSALHLAAQGLHAQT [R20L], the protein stability index was determined as 2.34. VIDLFDEQGLSALHLAAQGTHAQT [R20T]: the protein stability index is 3.14. For the variant VIDLFDEQGLSALHLAAQGEHAQT [R20E], the protein stability index amounted to 3.7. On to VIDLFDEQGLSALHLAAQGIHAQT [R20I], for which the protein stability index was determined as 2.46. As to VIDLFDEQGLSALHLAAQGNHAQT [R20N], the protein stability index was determined as 3.02. Take VIDLFDEQGLSALHLAAQGDHAQT [R20D]: the protein stability index is 3.82. Regarding VIDLFDEQGLSALHLAAQGFHAQT [R20F], the protein stability index is 2.38.

As to VIDLFDEQGLSALHLAAQGQHAQT [R20Q], the protein stability index came out at 3.29. Turning to VIDLFDEQGLSALHLAAQGVHAQT [R20V], the protein stability index turned out to be 2.54. VIDLFDEQGLSALHLAAQGMHAQT [R20M]: the protein stability index came to 2.58. Then VIDLFDEQGLSALHLAAQGKHAQT [R20K], with 3.53. On to VIDLFDEQGLSALHLAAQGHHAQT [R20H], for which the protein stability index is 2.8. For the variant VIDLFDEQGLSALHLAAQGSHAQT [R20S], the protein stability index worked out at 3.26. For VIDLFDEQGLSALHLAAQGGHAQT [R20G], the protein stability index was 2.94. In the case of VIDLFDEQGLSALHLAAQGAHAQT [R20A], the protein stability index stood at 2.66.

Take VIDLFDEQGLSALHLAAQGYHAQT [R20Y]: the protein stability index is 2.06. In the case of VIDLFDEQGLSALHLAAQGWHAQT [R20W], the protein stability index was determined as 2.02. On to VIDLFDEQGLSALHLAAQGPHAQT [R20P], for which the protein stability index was found to be 2.66. Turning to VIDLFDEQGLSALHLAAQGCHAQT [R20C], the protein stability index was found to be 2.6.

As to VIDLFDEQGLSALHLAAQGRFAQT [H21F], the protein stability index is 2.22.

As to VIDLFDEQGLSALHLAAQGRGAQT [H21G], the protein stability index worked out at 2.86.

VIDLFDEQGLSALHLAAQGRCAQT [H21C]: the protein stability index turned out to be 2.89. As for VIDLFDEQGLSALHLAAQGREAQT [H21E], the protein stability index was determined as 3.32. Then VIDLFDEQGLSALHLAAQGRAAQT [H21A], with 2.41; and VIDLFDEQGLSALHLAAQGRDAQT [H21D], with 3.18. Then VIDLFDEQGLSALELAAQGRHAQT [H14E], with 4.04; and VIDLFDEQGLSALGLAAQGRHAQT [H14G], with 2.6; and VIDLFDEQGLSALTLAAQGRHAQT [H14T], with 2.95.

Take VIDLFDEQGLSALILAAQGRHAQT [H14I]: the protein stability index stood at 1.88. Take VIDLFDEQGLSALSLAAQGRHAQT [H14S]: the protein stability index was found to be 2.55. VIDLFDEQGLSALMLAAQGRHAQT [H14M]: the protein stability index was 1.89. With VIDLFDEQGLSALCLAAQGRHAQT [H14C] the figure was 2.1. Regarding VIDLFDEQGLSALLLAAQGRHAQT [H14L], the protein stability index amounted to 2.33. VIDLFDEQGLSALNLAAQGRHAQT [H14N]: the protein stability index came to 3.5. With VIDLFDEQGLSALRLAAQGRHAQT [H14R] the figure was 3.25; with VIDLFDEQGLSALKLAAQGRHAQT [H14K], 2.8. With VIDLFDEQGLSALYLAAQGRHAQT [H14Y] the figure was 2.09; with VIDLFDEQGLSALQLAAQGRHAQT [H14Q], 3.2. As to VIDLFDEQGLSALDLAAQGRHAQT [H14D], the protein stability index is 3.6. With VIDLFDEQGLSALWLAAQGRHAQT [H14W] the figure was 1.9; with VIDLFDEQGLSALPLAAQGRHAQT [H14P], 3.54; with VIDLFDEQGLSALVLAAQGRHAQT [H14V], 2.28. Take VIDLFDEQGLSALALAAQGRHAQT [H14A]: the protein stability index stood at 2.49. For VIDLFDEQGLSALFLAAQGRHAQT [H14F], the protein stability index is 1.82.
